The results in this text go back to patent US7732563B2, “Cloning, sequencing and expression of a gene encoding an eukaryotic amino acid racemase, and diagnostic, therapeutic, and vaccination applications of parasite and viral mitogens” (priority 1999, dated 2010).

Assay [1] has as its system spleen cells / Ig-producing B cells. Description: Mitogenicity of rTcPA45 in vivo assessed by ELISPOT. Details: species or system mouse. The procedure: BALB/c mice were injected or not with 50 μg of rTcPA45 (i.p.), and spleen cells assayed day 7 after injection. Results represent total numbers of spleen cells, total number of B cells producing IgM, IgG2a, or IgG2b isotypes, and total numbers of isotype-producing B cells specific of the protein.
Mice were injected or not with 50 μg of iTcPA45 (i.p.). […] Numbers of Ig-secreting cells (total or specific to rTcPA45) were determined by Elispot assay, as follows:
Flat bottomed 96 well ELISA plates, were coated with either goat anti-mouse Ig or with rTcPA45 and incubated at 4° C. overnight. Plates were blocked with PBS-gelatin, washed with PBS-Tween and with RPMI medium. 100 μl of different spleen cell concentrations per well (in RPMI containing 2% FCS) were incubated for 8 hours at 37° C., 5% CO2. A row in the plate containing serial dilutions of purified immunoglobulin (IgM, IgG2a, or IgG2b) was used as standard. After lysis of the cells with H20-Tween, plates were then washed with PBS-Tween and incubated with respective biotin-labeled antibodies directed to (IgM, IgG2b, or IgG2a isotypes), overnight at 4EC. After washing, plates were incubated for 45-60 minutes with avidin-alkaline phosphatase and further incubated with substrate (2-amino-2-methyl-propanol buffer containing BCIP) 2-4 hours, 37° C. (until the spots are “dark” blue). Spots correspond to immunoglobulin-producing B-cell (of a particular isotype) directed to the coated antigen (here: goat anti-mouse immunoglobulins or rTcPA45). Spots are then counted and numbers corrected to total number of spleen cells according to the dilution. (See Table I and FIG. 7.)

Another assay deals with Trypanosoma cruzi. Description: rTcPA45 sub-mitogenic immunization followed by infective challenge, parasitemia. The assay is classed as in vivo. The procedure: FIG. 14B. rTcPA45 injection. 6 week old BALB/c mice were injected intraperitoneally (i.p.) with 10 ηg of rTcPA45 and then boosted i.p. one week later with 50 μg of rTcPA45. Mice were challenged 1 week after the boost with 10^4 infective forms of the parasite/mouse, and the parasitemia was scored during 30 days.
As with classical B cell mitogens, rTcPA45 mitogenicity is dose-dependent (FIG. 1). As for classical B cell mitogens, mouse specific immune responses directed to mitogenic rTcPA45 is indeed possible (Western blot FIG. 12) following a protocol of immunization which consisted of with 1 injection (i.p.) of a sub-mitogenic (10 ng/mouse) dose of the protein followed by an additional boost with a mitogenic dose of rTcPA45 (50 μg/mouse) one week later.
These additional results do support the claim that mitogenic moieties are potential targets for vaccination approaches against Trypanosoma cruzi infection. (See FIG. 14(b).)

Where [2] appears, read: BALB/c mice, 50 μg/mouse i.p., 7 days after injection.

B1: rTcPA45: recombinant T. cruzi polyclonal activator 45, B-cell mitogen and proline racemase, codons 30-423 with C-terminal 6×His tag, from E. coli (protein)
chain: RTGQEKLLFDQKYKIIKGEKKEKKKNQRANRREHQQKREIMRFKKSFTCIDMHTEGEAARIVTSGLPHIPGSNMAEKKAYLQENMDYLRRGIMLEPRGHDDMFGAFLFDPIEEGADLGMVFMDTGGYLNMCGHNSIAAVTAAVETGIVSVPAKATNVPVVLDTPAGLVRGTAHLQSGTESEVSNASIINVPSFLYQQDVVVVLPKPYGEVRVDIAFGGNFFAIVPAEQLGIDISVQNLSRLQEAGELLRTEINRSVKVQHPQLPHINTVDCVEIYGPPTNPEANYKNVVIFGNRQADRSPCGTGTSAKMATLYAKGQLRIGETFVYESILGSLFQGRVLGEERIPGVKVPVTKDAEEGMLVVTAEITGKAFIMGFNTMLFDPTDPFKNGFTLKQ
modifications: left off: small tags and cut ends
Turning to B1, in assay [1] (50 μg rTcPA45 i.p., day 7), the “Ig-secreting B cells directed to TcPA45” value is “complete lack”; the “IgM secreting cells directed to the injected protein” value was “less than 0.5%”; the “increase in total numbers of Ig-secreting B cells (IgM, IgG2a, IgG2b isotypes)” value was 3-6 fold; the “increase in total spleen cell numbers” value stood at 2 fold. Moreover, the “increase in spleen cell numbers” value in assay [1] (50 μg rTcPA45 in vivo, by day 4) was 2 fold. For the same molecule, the “rTcPA45-specific Ig-secreting B cells” value in assay [1] (50 μg rTcPA45 in vivo, day 4) is on record as “complete lack”. For the same molecule, in assay [1] (setting [2]), the “Total Number of Ig-producing B cells ANTI-rTc45MIT: IgG2a-B cells anti 45” value is recorded as “none”, the “Total Number of Ig-producing B cells ANTI-rTc45MIT: IgG2b-B cells anti 45” value is reported as “none”, the “Total Number of Ig-producing B cells ANTI-rTc45MIT: IgM-B cells anti 45” value came to 84 and the “Total Number of Ig-producing B cells: IgG2a-producing cells” value is given as 9866 ± 3000. Besides, in assay [1] (setting [2]), the “Total Number of Ig-producing B cells: IgG2b-producing cells” value is given as 14633 ± 3287 and the “Total Number of Ig-producing B cells: IgM-producing cells” value is listed as 371666 ± 94495. In addition, in the assay with Trypanosoma cruzi (BALB/c mice, 10 ng i.p. then boost 50 μg i.p. one week later, challenge 10^4 parasites/mouse), the parasitemia control was 90-95%. The “parasitemia control compared with DNA vaccination (85% decrease)” value in the assay with Trypanosoma cruzi (sub-mitogenic doses of active rTcPA45 intraperitoneally 2 weeks before infective challenge) is “even higher levels of parasitemia control”.
